Substitutions are numbered along the chain they refer to.
B1: H27 (VHH)
VHH: EVQVVESGGGLVQAGDSLTLSCVAVQGERFFSQYTVGWFRQAPGRERTLVATINYSRETYYSDSAKGRFTISRDNAKNTVYLQMNSLNPEDTATYYCAATRHARISTTITEDRYDYWGQGTQVTVSS
B2: H6 (VHH)
VHH: QVQLVESGGGLVEAGGSLRLSCTTSGGTLSPYTMGWFRQAPGKGREFVSGISCLGWHSYEGDSVKGRFTISRDNAKNTLYLQMNSLKPEDTAVYYCAASSGCSSTMIDADFTSWGQGTQVTVSS
B3: H43 (VHH)
VHH: EVQVVESGGDLVQAGASLRLSCAAPEPVFISSFGNKYAFGWFRQAPGKQRELVASISGIGNTNYADSVNGRFTISRDNAKNSVYLQMNSLKPEDTAVYYCTAVRRCFLTTWTPINPYYGMHSWGKGTLVTVSS
B4: H102 (VHH)
VHH: QVQLVESGGGLVQPGGSLRLSCTGSGLSLEDYAIGWFRQAPGKDRNWVACIPHKREPLYRDYVRGRFTISRNNTANTVDLQMNSLKPEDTAVYYCTAVRRCFLTTWTPINPYYGMHSWGKGTLVTVSS
B5: H147 (VHH)
VHH: QVQLVESGGAWVQPGGSLRLSCVASGFTLDYYAVGWFRQAPGKEREGVSCISRRGGESTNYASSVKGRFTISRDSVKNTVYLQMNSLKPEDTAVYYCAAVLRCFSTTWAPINPYYGMHSWGKGTLVTVSS
B6: H45 (VHH)
VHH: QLQLVESGGGSVQSGGSLRLSCLATGRKLDDLVIKWFRQPPGKLREGVACISGSGRTIKYADSVKGRFIISNEYGKNTVYLQMNSLTPDDTAVYYCAAEQILCDRKWYPLGNDYYGQGTQVTVSS
B7: H184 (VHH)
VHH: QLQLVESGGGLVQPGGSLTLSCTASVDYYALGWFRQTPEKQREGVSCIGISGQRTFYADSVKGRFNITRDNTRKTAFLQMKDLKPEDTGVYFCAAERGRTVDAMCLKARPDYWGQGTQVTVSS
B8: H36 (VHH)
VHH: QVQLVESGGALVQPGGSLTLSCSGHGITLRHYTVGWFREAPGKRRQWISSIRSSDERTNYAASVKGRFIISRNDGENTVKLQLNDVGPEDMATYRCAAGADTIKVFSGWAADYMFWGQGTQVTVSS
B9: H15 (VHH)
VHH: QLQLVESGGALAQPGGSLTLSCAVRGATLDSYAIAWFREAPGEEREGVACIGGSEESTFMKYSLKDRVSLSTNRAEKMVYLHMNSLQPEDTAAYYCAASASGSRSVLAGCPSRTMGFWGKGTLVTVSS
B10: nanobody H8 (VHH)
VHH: QVQLVESGGGLVQTGGSLRLSCAVSRFTLDYGATGWFRQAPGKEREGVSCIGRDDGSTYYAESVKGRFTMSRDKAKNTVYLEMNSLKPEDTAVYYCAADYFARCAANLPNRYLYWGQGTQVTVSS
notes: not shown: His6, C-terminal, kept
B11: nanobody H93 (VHH)
VHH: QLQLVESGGGLVQPGGSLRLSCVVSGGTLDYHAIAWFRQAPGKVREGVLCISSSGGSTNWLEAVKGRFTISRDNAKNTVYLQMNSLKPEDTAVYYCAAVRRCFLTTWTPINPYYGMHSWGKGTLVTVSS
notes: as for B10
B12: nanobody H145 (VHH)
VHH: QVQLVESGGGLVQTGGSLRLSCEASGSAFSSYAVNWYRQAPGKQREPVAAIGSFNTVYSDSVKGRFTISRDNAKNTVYLQMNSLKPEDTAVYICNARRGATNTWGQGTQVTVSS
notes: also called anti-SH nNb H145; not shown: His6, C-terminal, kept
B13: nanobody H177 (VHH)
VHH: QVQLVESGGGRVPPGGSLRLSCVASGFYWDYFVISWFRQAPGKEREWVSCIRSATDSANYADFVKGRFTISRENGKSTVYLQMNSLTPEDTAVYRCAVAYGTSWCRNPADMNYWGKGTLVTVSS
notes: as for B10
B14: nanobody H180 (VHH)
VHH: QVQLVESGGGLVQAGGSLKLSCAASGLRSDGTAIGWFRQAPGKEREWVSCIRRRDGGTYYADSVESRFTISRDVAKNTVHLQMNSLKPEDTAVYYCASRDDSWCTTRSYEYSYWGQGTPVTVSS
notes: as for B10
B15: nanobody H58 (VHH)
VHH: QLQLVESGGGLADDGGSLRLSCAASGFALRYWTVGWFRQAPGKEREGLACISRSGNITSYTDSAKGRFTISRDNAKNTVYLQMNSLKPEDTAVYYCTAVRRCFLTTWTPINPYYGMHSWGKGTLVTVSS
notes: as for B10
B16: nanobody H49 (VHH)
VHH: QLQLVESGGGSVQAGGSLRLACTTSGRTFNKYAMAWFRQPPGQEREFIASITWIGGSTYYANSAKGRFTISRDNAKNTAYLQMNSLKPDDTAVYQCQLRKGILSYWGQGTQVTVSS
notes: as for B10
B17: nanobody H68 (VHH)
VHH: EVQVVESGGGLVQPGGSLRLSCVGSSFTLNAIGWFRQAPGKEREWVSCTTGDGSTNYPDSVKGRFTISRDNAKNTVYLQMNSLKPEDTAVYYCTAVRRCFLTTWTPINPYYGMHSWGKGTLVTVSS
notes: as for B10
B18: nanobody H23 (VHH)
VHH: EVQVVESGGGWVQAGGSRRLSCAASGFTLDSYAVGWFRQAPGKEREGVSCISGISSSGGTTNYVDSVKGRFTISRDNAKNTVYLQMNSLKPEDTAVYYCAAVRRCFLTTWTPINPYYGMHSWGKGTLVTVSS
notes: as for B10
B19: nanobody H84 (VHH)
VHH: B18 VHH with E1Q, V2L, V4L, R18L, V82A, Y83E, A100T
notes: as for B10
B20: nanobody H85 (VHH)
VHH: QLQLVESGGGLVQAGGSLRLSCAASGSTISRHAMGWYRQAPGMQRELVASISSGGTTNYADSVKGRFTISRDSAKNMVYLHMTSLKPEDTAVYYCATKPVHMLTRRLHLGGCTYGMDYWGKGTLVTVSS
notes: as for B10
B21: nanobody H88 (VHH)
VHH: QVQLVESGGGLLQPGGSLRLSCAASGFTLDNYAIGWFRQAPGKEREWVSCISVSDGRTYYADSVQGRFTTSRDNAKNTVYLHLNSLKPEDTAVYSCASRRGRWCTTRSYEYEYWGQGTQVTVSS
notes: as for B10

How the values were obtained:
[1] = target: SARS-CoV-2 S2 (T1076-Q1208) antigen, trimeric S2 fusion-core-based antigen (SARS-CoV-2 prototype (MN908947.3), UniProt P0DTC2, biotin (Biotinylation Kit))
[2] = target: S2 (T1076-Q1208) protein as coated in ELISA (devoid of the His tag) (SARS-CoV-2, MN908947.3, UniProt P0DTC2); assay: ELISA; […], room temperature; […]; details: both partners purified
[3] = target: SARS-CoV-2 spike (S) protein, full-length, expressed on the surface of HEK-293T cells (SARS-CoV-2 prototype (MN908947.3), UniProt P0DTC2); assay: flow cytometry on cells; details: one partner purified
[4] = target: T1, GST-fused truncated S2 protein S2 (D1139-L1152) (SARS-CoV-2, MN908947.3); assay: ELISA; […], room temperature; […]; details: both partners purified
T1 construct: not shown: GST, N-terminal, kept
T1 chain: DPLQPELDSFKEEL

[5] = target: T2, epitope SH-peptide (spanning residues D1139-D1153) (SARS-CoV-2 prototype, UniProt P0DTC2); assay: crystal structure; details: both partners purified
T2 chain: DPLQPELDSFKEELD

[6] = target: T3, GST-fused truncated S2 protein S2 (T1076-H1159) (SARS-CoV-2 prototype (MN908947.3), UniProt P0DTC2); assay: far-Western, overlay or dot blot; details: both partners purified
T3 construct: not shown: GST, N-terminal, kept

[7] = target: HKU3 spike (S) protein expressed on HEK-293T cells (Bat SARS-like coronavirus HKU3, GenBank …, UniProt A0A7G6UAJ9, strain); assay: flow cytometry on cells; details: one partner purified
[8] = target: SARS-CoV spike (S) protein expressed on HEK-293T cells (SARS-CoV, GenBank AY278554.2, UniProt P59594); assay: flow cytometry on cells; details: one partner purified
[9] = target: PANG/GD spike (S) protein expressed on HEK-293T cells (Pangolin coronavirus Guangdong …, strain); assay: flow cytometry on cells; details: one partner purified
[10] = target: WIV1 spike (S) protein expressed on HEK-293T cells (Bat SARS-like coronavirus WIV1 …, UniProt U5WI05, strain); assay: flow cytometry on cells; details: one partner purified
[11] = target: T4, GST-fused truncated S2 protein S2 (L1141-L1152) (SARS-CoV-2 prototype (MN908947.3), UniProt P0DTC2); assay: BLI; […]; 20 mM HEPES pH 7.4, 150 mM NaCl, 0.05% Tween-20; details: both partners purified
T4 construct: not shown: GST, N-terminal, kept
T4 chain: LQPELDSFKEEL

[12] = target: T5, GST-fused truncated S2 protein S2 (D1139-E1150) (SARS-CoV-2, MN908947.3, UniProt P0DTC2); assay: as above; details: both partners purified
T5 construct: not shown: GST, N-terminal, kept
T5 chain: DPLQPELDSFKE

[13] = target: T6, GST-fused truncated S2 protein S2 (P1140-D1153) (SARS-CoV-2, MN908947.3, UniProt P0DTC2); assay: as above; details: both partners purified
T6 construct: not shown: GST, N-terminal, kept
T6 chain: PLQPELDSFKEELD

[14] = target: T7, GST-fused truncated S2 protein S2 (P1140-L1152) (SARS-CoV-2 prototype (MN908947.3), UniProt P0DTC2); assay: as above; details: both partners purified
T7 construct: not shown: GST, N-terminal, kept
T7 chain: PLQPELDSFKEEL

Row | Binder | binding result [1] | binding result [2] | binding result [3] | other results
1 | B1 | binds | – | – | –
2 | B2 | binds | – | – | –
3 | B3 | binds | – | – | –
4 | B4 | binds | – | – | –
5 | B5 | binds | – | – | –
6 | B6 | binds | – | – | –
7 | B7 | binds | – | – | –
8 | B8 | binds | – | – | –
9 | B9 | binds | – | – | –
10 | B10 | – | binds | – | –
11 | B11 | – | binds | binds | –
12 | B12 | – | binds | binds | EC50 [4]: 2 nM; binding result [5]: binds; binding result [6]: binds; binding result [7]: binds; binding result [8]: binds; binding result [9]: binds; binding result [10]: binds; binding result [11]: no binding (tested: 200 nM); binding result [12]: binds; binding result [13]: no binding (tested: 200 nM); binding result [14]: no binding (tested: 200 nM)
13 | B13 | – | binds | binds | –
14 | B14 | – | binds | binds | –
15 | B15 | – | binds | binds | –
16 | B16 | – | binds | binds | –
17 | B17 | – | binds | binds | –
18 | B18 | – | binds | – | –
19 | B19 | – | binds | – | –
20 | B20 | – | binds | – | –
21 | B21 | – | binds | – | –

From PMC12052392 (PLOS Pathogens, 2025)
